In patent US20090280134A1 one finds fold increase in relative O.D. (GSA-reactivity/anti-mouse IgG reactivity) and fold increase in α-Gal epitope density (relative O.D., GSA-reactivity/anti-mouse IgG reactivity) data, which are given here for 1 substance.

The target in experiment [1] is PSGL-1/mIgG2b fusion protein co-expressed with porcine α1,3 galactosyltransferase (α-Gal substituted) (human; mouse) (UniProt Q14242). Briefly: sandwich ELISA, fusion protein made in CHO cells with α1,3GalT against the same made without α1,3GalT. Background: In an ELISA, binding on a coated surface is turned into a signal by an enzyme label.
Experiment [2] has as its target PSGL-1/mIgG2b fusion protein co-expressed in CHO-K1 cells with porcine α1,3GalT and core 2 β1,6 GlcNAc transferase (C2 GnTI) (human; mouse) (UniProt Q14242). Put plainly: sandwich ELISA, fusion protein from CHO-K1 with α1,3GalT and C2 GnTI against fusion protein from CHO-K1 without α1,3GalT.
Experiment [3] deals with PSGL-1/mIgG2b fusion protein co-expressed with porcine α1,3 galactosyltransferase (α-Gal substituted) (human; mouse) (UniProt Q14242). Put plainly: sandwich ELISA, fusion protein made in COS cells with α1,3GalT against the same made in COS without α1,3GalT.
Experiment [4] concerns the target PSGL-1/mIgG2b fusion protein co-expressed in CHO-K1 cells with porcine α1,3GalT and core 2 β1,6 GlcNAc transferase (C2 GnTI) (human; mouse) (UniProt Q14242). Briefly: sandwich ELISA, fusion protein from CHO-K1 with α1,3GalT and C2 GnTI against fusion protein from CHO-K1 with α1,3GalT alone.
The target of experiment [5] is PSGL-1/mIgG2b fusion protein co-expressed with porcine α1,3 galactosyltransferase (α-Gal substituted) (human; mouse) (UniProt Q14242). Put plainly: sandwich ELISA, fusion protein made in 293T cells with α1,3GalT against the same made without α1,3GalT.

As for “peroxidase-conjugated Griffonia (Bandeiraea) simplicifolia I isolectin B4 (cat.no. L-5391; Sigma)”, the fold increase in relative O.D. (GSA-reactivity/anti-mouse IgG reactivity) came to 1.8 fold in experiment [1], 5.3 fold in experiment [3] and 3.1 fold in experiment [5]. Moreover, the fold increase in α-Gal epitope density (relative O.D., GSA-reactivity/anti-mouse IgG reactivity) in experiment [2] came to 13 fold; in experiment [4], 7.4 fold.
